Measured values taken from patent publication US20200148768A1 (STCUBE, published 2020).
Numbering of substitutions follows the chain as printed.

Columns and labels:
human BTN1A1-ECD-Fc [1] = biological target: T1, human BTN1A1-ECD-Fc (human, N-glycosylated (PNGase F sensitive)); assay: Octet BLI, anti-mouse Fc capture
T1 construct: also called BTN1A1-Fc; hBTN1A1-Fc
Description: Using a biosensor coated with anti-mouse Fc capture antibody, KD was determined by Kon and Koff. Antibodies with higher affinity (nanomolar range) were selected. Epitope binning is also used to categorize the epitope binding characteristics of panels of antibodies against a single target. This epitope binning experiment was designed to determine whether two different antibodies bind to the same epitope. If two antibodies bind to the same epitope of the antigen, then the binding of the first antibody will preclude the binding if the second antibody. If each antibody in a tested pair binds to a completely independent epitope, then binding of the first antibody will have no effect on the binding of the second. Through repeated testing, the antibodies are grouped according to epitope binding specificity. This experiment was performed using the Octet Red96 System (Pall ForteBio) with Bio-Layer Interferometry (BLI) to detect and analyze the interaction of biological molecules. Antigen was bound to the disposable sensors, then additional binding of antibody to the antigen was measured by change in delay of the reflection of the light passing through the sensor. A longer delay is indicative of more mass bound to the sensor, and this value is used to determine the degree of protein-antibody interaction.

human BTN1A1-ECD-Fc [2] = biological target: T1, human BTN1A1-ECD-Fc; assay: direct ELISA, coated BTN1A1-Fc, native Ag
Description: In order to exclude the possibility that the observed binding was due to human Fc binding, ELISA was performed using human BTN1A1-Fc and human IgG1 control. The antigens BTN1A1-Fc and human IgG1 were coated onto ELISA plate. Antibodies were added to each well and binding was for each antibody determined by standard direct ELISA against the antigens. Human IgG1 binding antibodies were excluded from the candidates.

human BTN1A1-ECD-Fc [3] = biological target: T1, human BTN1A1-ECD-Fc; assay: direct ELISA, coated BTN1A1-Fc, denatured Ag
[4] = biological target: T2, human BTN1A1 wild type, expressed on cells (human, UniProt Q13410 27-526, glycosylated at N55 and N215 (extracellular)); assay: FACS, HEK293T overexpressing BTN1A1, FITC secondary
T2 construct: also as whole-cell lysate in western blots; also called BTN1A1 WT
T2 sequence: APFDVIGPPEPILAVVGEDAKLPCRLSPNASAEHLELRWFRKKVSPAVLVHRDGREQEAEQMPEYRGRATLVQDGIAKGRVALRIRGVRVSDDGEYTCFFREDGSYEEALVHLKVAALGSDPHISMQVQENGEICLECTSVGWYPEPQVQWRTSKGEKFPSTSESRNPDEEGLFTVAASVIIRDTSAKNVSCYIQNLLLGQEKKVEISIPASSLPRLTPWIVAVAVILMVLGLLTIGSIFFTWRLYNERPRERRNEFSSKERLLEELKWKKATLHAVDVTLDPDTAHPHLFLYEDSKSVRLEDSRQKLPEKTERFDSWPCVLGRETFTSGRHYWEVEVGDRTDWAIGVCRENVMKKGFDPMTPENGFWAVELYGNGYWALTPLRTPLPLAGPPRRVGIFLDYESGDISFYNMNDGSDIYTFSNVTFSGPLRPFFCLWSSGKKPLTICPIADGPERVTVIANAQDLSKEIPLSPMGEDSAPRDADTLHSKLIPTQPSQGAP
Description: To identify anti-BTN1A1-Fc MAbs that were specific for and which preferentially bound human BTN1A1-Fc antigen, different types of assays were performed. In a screening assay to detect preferential binding of MAbs to BTN1A1, antibody binding was determined based on the measurement of fluorescence intensity through FACS analysis (using cell membrane bound proteins). By way of example, the assay was performed using the HEK293T human embryonic kidney cell line. Illustratively, HEK293T cells overexpressing BTN1A1 were incubated with anti-BTN1A1 antibodies existing in hybridoma culture supernatant. After washing, secondary antibodies conjugated with FITC were added as detection agent. Fluorescence intensity (measured fluorescence intensity, MFI) was measured via FACS I flow cytometry analysis to assess the relative binding of the anti-BTN1A1 antibodies to membrane bound BTN1A1 WT on cells. […] Based on the binding analysis, sixty seven candidate MAb-producing hybridomas were selected, grown in ADCF medium, and their supernatant containing monoclonal antibody was concentrated and purified.

mouse BTN1A1-ECD-Fc = biological target: T3, mouse BTN1A1-ECD-Fc (mouse; human, UniProt Q62556 27-247); assay: SPR (Biacore X-100), antibody captured on chip, mouse BTN1A1-ECD-Fc 2-64 nM
T3 construct: also called human IgG1-Fc-tagged mouse BTN1A1-ECD (dimer); mBTN1A1-Fc
T3 chain: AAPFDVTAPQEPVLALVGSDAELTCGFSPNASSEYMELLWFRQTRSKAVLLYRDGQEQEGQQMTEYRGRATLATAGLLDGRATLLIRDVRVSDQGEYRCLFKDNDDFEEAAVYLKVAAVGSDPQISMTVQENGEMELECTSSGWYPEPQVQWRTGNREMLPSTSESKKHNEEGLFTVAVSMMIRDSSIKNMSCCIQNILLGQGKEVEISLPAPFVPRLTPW
Description: The binding affinity between BTN1A1 and monoclonal anti-BTN1A1 antibodies STC1011, STC1012, and STC1029 was measured by Surface Plasmon Resonance (BIAcore™). Sensorgrams and saturation curves of antibody titrations of with human IgG1-Fc-tagged mouse BTN1A1-ECD (dimer) were recorded.
An Protein capture chip (BIAcore™) was coated with STC1011, STC1012, STC1029, or a control IgG1 antibody. No interaction between the IgG1 control and mouse BTN1A1-His was observed. Mouse BTN1A1-ECD-Fc was injected into the microfluidic channel on a Biacore™ X-100 instrument. KD values were obtained using fitting tools of the BIAevaluation software (BIAcore). FIGS. 29A-C provide sensograms showing real-time binding of dimeric BTN1A1-ECD-Fc (2-64 nM with 2-fold dilution) to immobilized STC1011, STC1012, and STC1029.

human BTN1A1-ECD-Fc [5] = biological target: T1, human BTN1A1-ECD-Fc; assay: SPR (Biacore)
Description: (§1) An mIgG capture chip (BIAcore™) was coated with antibody with 600 response units (RU) and BTN1A1-ECD was injected into the microfluidic channel. KD values were obtained using fitting tools of the BIAevaluation software (BIAcore). FIGS. 22A-F provide sensograms showing real-time binding of dimeric BTN1A1-ECD-Fc (2-64 nM with 2-fold dilution; FIGS. 22A, C, and E) or of monomeric BTN1A1-ECD-His (2-64 nM with 2-fold dilution; FIGS. 22B, D, and F) to STC703, STC810, or STC820 immobilized on an mIgG capture CMS chip. Flow cells without any immobilized protein were used as the controls for non-specific binding and control cell signals were subtracted from test cell signals to produce the sensograms shown in FIGS. 22A-F.
(§2) The KD values for BTN1A1-ECD-Fc or BTN1A1-ECD-His binding to STC703, STC810, and STC820 as measured by Biacore assays are provided in Table 17 below.

[6] = biological target: T2, human BTN1A1 wild type, expressed on …; assay: FACS, 293T BTN1A1 WT against 2NQ
Description: The glyco-specificity of monoclonal anti-BTN1A1 antibodies was characterized by dot blot analysis. Each anti-BTN1A1 mAb (0.5 μg/well loaded) was tested for binding to glycosylated BTN1A1 (PNGaseF “−”) or deglycosylated BTN1A1 (PNGaseF “+”). Non-specific antibody controls (“IgG,” 0.25 μg/well loaded) was also included in the assay. As shown in FIGS. 19A-19B, both glycosylated BTN1A1 protein and non-glycosylated BTN1A1 (BTN1A1 protein treated with PNGase F) were coated on the solid phase and tested for mAb and antigen binding affinity. […] The glyco-specificity of monoclonal anti-BTN1A1 antibodies was also characterized by FACS analysis. […] After further washing, fluorescence intensity (MFI) was measured to assess relative binding of antibodies to membrane-bound glycosylated or unglycosylated BTN1A1. […] See, e.g., FIGS. 21A-C and Table 16.

human BTN1A1-ECD-Fc [7] = biological target: T1, human BTN1A1-ECD-Fc; assay: SPR (Biacore), antibody on mIgG capture chip, BTN1A1-ECD-Fc 2-64 nM
Description: as §1, §2

human BTN1A1-ECD-His6 = biological target: T4, human BTN1A1-ECD-His6 (human, UniProt Q13410 27-242, N-glycosylated (PNGase F sensitive)); assay: western blot after SDS-PAGE, native lanes (no DTT, no boiling) and reduced lanes (DTT, boiling)
T4 construct: also called BTN1A1-His; hBTN1A1-His
T4 sequence: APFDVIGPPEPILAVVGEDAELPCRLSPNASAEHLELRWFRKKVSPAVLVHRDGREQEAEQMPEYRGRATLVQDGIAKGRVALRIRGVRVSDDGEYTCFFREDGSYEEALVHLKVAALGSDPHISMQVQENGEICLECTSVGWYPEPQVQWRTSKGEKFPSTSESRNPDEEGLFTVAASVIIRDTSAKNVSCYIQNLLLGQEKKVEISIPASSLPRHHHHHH
From the text: FIG. 34—Dimer-specific binding of BTN1A1 antibody. FIG. 34 first panel from the left is an image of Coomassie blue stained SDS-PAGE gel, showing locations of monomer and dimer forms of the BTN1A1 protein in both native and reduced conditions along with a size standard. The second through fifth panels show western blots visualizing the monomer and dimer forms of the BTN1A1 protein in both native and reduced conditions using STC810, STC2602, STC2714 and STC 2781 antibody, respectively.
To determine the conformational specificity, Western blot analysis was performed using both dimer form of BTN1A1 (Fc fusion protein extracellular domain of BTN1A1) and monomer form of BTN1A1 (His-tagged protein of extracellular domain of BTN1A1). Proteins were treated with DTT (a reducing agent) and boiling or without reducing and denaturing by boiling. After running the proteins on SDS-PAGE, Western blot was performed by a standard protocol (FIG. 34). In a native condition (without a reducing agent and boiling), STC2714 recognized only Fc fusion protein, a dimerized form of BTN1A1 ECD, but not His-tagged protein, a monomer form of BTN1A1 ECD.

B1: STC2778 (antibody, V domains shown)
VH: QIQLVQSGPELKKPGETVKISCKASGYSFTNYGMNWVKQAPGKGLKWMGWINIYTGETTYGDDFKGRFAFSLETSASTAYLQINNLRSEDTATYFCVRGGTMIMYWGQGTTLTVSS
VL: DIVLTQSPATLSVTPGDSVSLSCRASQSISNNLHWHQQKSHESPRLLIKYASQSMSGIPSRFSGSGSGTDFTLSINSVETEDFGMYFCQQSDSWPLTFGAGTKLELK
B1 was tested, and the Kd (human BTN1A1-ECD-Fc [1]) was 0.436 nM, the “ELISA (Native Ag)” value (human BTN1A1-ECD-Fc [2]) was 1.8 and the “ELISA (Denatured Ag)” value (human BTN1A1-ECD-Fc [3]) was 1.44. For the same binder, the “FACS (MFI)” value [4] was 2340.

B2: STC1029 (antibody, V domains shown)
VH: EVQLQQSGPELVKPGASVKISCKASGYSFTGYFMNWVKQSHGKSLEWIGRINPYNGDTFYNQKFKDKATLTVDTSSSTAHMELRSLTSEESAVYYCARWTTVINFDYWGQGTTLTVSS
VL: SIVMTQTPKFLLVSAGDRVTITCKASQSVSYDVVWYQQKPGQSPKLLMYYVSNRYTGVPDRFTGSGYGTDFTFTISTVQAEDLAVYFCQQDYSSPPTFGGGTKLEIK
notes: kappa; also called mouse monoclonal anti-mouse BTN1A1 Antibody STC1029
B2 gave a Kd (mouse BTN1A1-ECD-Fc) of 1.69 nM, a koff (mouse BTN1A1-ECD-Fc) of 0.000427 s⁻¹ and a kon (mouse BTN1A1-ECD-Fc) of 251000 M⁻¹ s⁻¹.

B3: STC810 (antibody, V domains shown)
VH: EVQLQQSGPELVKPGASVKISCKASGYTFTHYNMDWVKQSHGKSLEWIGYIYPSNGGTGYNQKFKSRATLTVDKSSSTAYMELHSLTSEDSAVYYCARGAYHYGSSYAYWYFDVWGAGTTVTVSS
VL: DIQMTQTTSSLSASLGDRVTISCSASQDISNYLNWYQQKPDETVKLLISYTSSLHSGVPSRFSGSGSGTDYSLTISNLAPEDIATYYCQQSSKLPFTFGSGTELEIKR
notes: mouse monoclonal; kappa; also called mouse monoclonal anti-human BTN1A1 antibody STC810
For B3, the “fold higher affinity than to monomeric BTN1A1-ECD-His” value (human BTN1A1-ECD-Fc [5]) was > 100 fold, the “fold MFI on glycosylated over unglycosylated BTN1A1” value [6] was ≥ 2 fold and the Kd (human BTN1A1-ECD-Fc [7]) was 0.92 nM.

B4: STC2602 (antibody, V domains shown)
VH: EVQLQQSGPELVKPGASVKISCKASGFSFIGYYIDWVKQSPGKSLEWIGYIYPSNGETSYHQKCKGKATLTVDKSSSTVNMQLNSLTSEDSAVYYCARYGNYDWFFDVWGAGTTVTVSS
VL: QIVLTQSPAIMSASPGEKVTITCSASSSVSYMHWFQQKPGTSPKFWIYSTSNLASGVPIRFSGSGSGTSYSLTISRMEAEDAATYYCQQRSSYPYTFGGGTKLEIK
B4 was tested, and the Kd (human BTN1A1-ECD-Fc [1]) was 2.35 nM, the “ELISA (Native Ag)” value (human BTN1A1-ECD-Fc [2]) was 1.39 and the “ELISA (Denatured Ag)” value (human BTN1A1-ECD-Fc [3]) was 0.128. For the same binder, the “FACS (MFI)” value [4] was 69.5 and the binding result (human BTN1A1-ECD-His6) was “no binding”.

B5: STC2739 (antibody, V domains shown)
VH: QVQLKQSGPGLVQPSQSLSITCTVSGFSLTTHGVNWVRQSPGKGLEWLGVIWSGGSTDYNAAFISRLSISKDNSKSQVFFKMNSLQANDTAIYYCARPYYYGAMDYWGQGTSVTVSS
VL: B4 VL with A9S, M32I, F45L, I59A, S92I, Y95L, G99A, I105L
With B5 the Kd (human BTN1A1-ECD-Fc [1]) was 0.0885 nM, the “ELISA (Native Ag)” value (human BTN1A1-ECD-Fc [2]) was 0.956 and the “ELISA (Denatured Ag)” value (human BTN1A1-ECD-Fc [3]) was 0.418. The “FACS (MFI)” value [4] was 841.

B6: STC1012 (antibody, V domains shown)
VH: EVMLVESGGALVKPGGSLKLSCAASGFTFSNYVMSWVRQTPEKRLEWVATISSGGSYTNYPDSVKGRFIISRDNARNTLYLQMSSLRSEDTAIYYCVREGDGFYVFDYWGLGTTLTVSS
VL: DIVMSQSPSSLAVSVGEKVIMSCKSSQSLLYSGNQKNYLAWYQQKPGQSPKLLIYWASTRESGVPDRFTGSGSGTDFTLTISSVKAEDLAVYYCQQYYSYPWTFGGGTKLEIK
notes: kappa; pHrodo-labeled in the internalization assay; also called mouse monoclonal anti-mouse BTN1A1 antibody STC1012
In the case of B6, the Kd (mouse BTN1A1-ECD-Fc) is reported as 4.1 nM, the koff (mouse BTN1A1-ECD-Fc) is reported as 0.000599 s⁻¹ and the kon (mouse BTN1A1-ECD-Fc) is reported as 146000 M⁻¹ s⁻¹.
